Laboratory results reported in IntAct's records for PubMed 31515488.

B1: SR-related and CTD-associated factor 8 (Homo sapiens), Q9UPN6 (parent)
chain: MEAVKTFNSELYSLNDYKPPISKAKMTQITKAAIKAIKFYKHVVQSVEKFIQKCKPEYKVPGLYVIDSIVRQSRHQFGQEKDVFAPRFSNNIISTFQNLYRCPGDDKSKIVRVLNLWQKNNVFKSEIIQPLLDMAAGIPPPVVTPVLASTTTAMSNTPGTPVTPVTPANVVQGLPDPWVSQITNTDTLAAVAQILQSPQGQQLQQLIQTLQIQQQKPQPSILQALDAGLVVQLQALTAQLTAAAAAANTLTPLEQGVSFNKKLMDRFDFGEDSEHSEEPKKEIPASQLSHVSESVNNSIFHQIAEQLQQQNLEHLRQQLLEQQQPQKATPQDSQEGTFGSEHSASPSQGSSQQHFLEPEVNLDDSIDIQQQDMDIDEGQDGVEEEVFEQEAKKVAVRSRSRTHSRSRSRSPRKRRSRSRSGSRKRKHRKRSRSRSRERKRKSSRSYSSERRAREREKERQKKGLPPIRSKTLSVCSTTLWVGQVDKKATQQDLTNLFEEFGQIESINMIPPRGCAYVCMVHRQDAFRALQKLSSGSYKIGSKVIKIAWALNKGVKTEYKQFWDVDLGVTYIPWEKVKVDDLEGFAEGGMIDQETVNTEWETVKSSEPVKETVQTTQSPTPVEKETVVTTQAEVFPPPVAMLQIPVAPAVPTVSLVPPAFPVSMPVPPPGFSPIPPPPFLRASFNPSQPPPGFMPPPVPPPVVPPPTIPPVVPTSLVQPSLSMTPETVKDVGFGSLVIPGGSVASNLATSALPAGNVFNAPTKQAEPEEKVPHLIDHQISSGENTRSVIPNDISSNAAILGGQPPNVTSNSGILGVQRPNVSSNSEILGVRPSNVSSSSGIIAAQPPNILNNSGILGIQPPSVSNSSGLLGVLPPNIPNNSGLVGVQPPNVPNTPGLLGTQPPAGPQNLPPLSIPNQRMPTMPMLDIRPGLIPQAPGPRFPLIQPGIPPQRGIPPPSVLDSALHPPPRGPFPPGDIFSQPERPFLAPGRQSVDNVTNPEKRIPLGNDNIQQEGDRDYRFPPIETRESISRPPPVDVRDVVGRPIDPREGPGRPPLDGRDHFGRPPVDIRENLVRPGIDHLGRRDHFGFNPEKPWGHRGDFDEREHRVLPVYGGPKGLHEERGRFRSGNYRFDPRSGPWNRGFGQEVHRDFDDRRRPWERQRDRDDRDFDFCREMNGNRLGRDRIQNTWVPPPHARVFDYFEGATSQRKGDNVPQVNGENTERHAQPPPIPVQNDPELYEKLTSSNEINKEKSDTVADIESEPVVESTETEGT
partner: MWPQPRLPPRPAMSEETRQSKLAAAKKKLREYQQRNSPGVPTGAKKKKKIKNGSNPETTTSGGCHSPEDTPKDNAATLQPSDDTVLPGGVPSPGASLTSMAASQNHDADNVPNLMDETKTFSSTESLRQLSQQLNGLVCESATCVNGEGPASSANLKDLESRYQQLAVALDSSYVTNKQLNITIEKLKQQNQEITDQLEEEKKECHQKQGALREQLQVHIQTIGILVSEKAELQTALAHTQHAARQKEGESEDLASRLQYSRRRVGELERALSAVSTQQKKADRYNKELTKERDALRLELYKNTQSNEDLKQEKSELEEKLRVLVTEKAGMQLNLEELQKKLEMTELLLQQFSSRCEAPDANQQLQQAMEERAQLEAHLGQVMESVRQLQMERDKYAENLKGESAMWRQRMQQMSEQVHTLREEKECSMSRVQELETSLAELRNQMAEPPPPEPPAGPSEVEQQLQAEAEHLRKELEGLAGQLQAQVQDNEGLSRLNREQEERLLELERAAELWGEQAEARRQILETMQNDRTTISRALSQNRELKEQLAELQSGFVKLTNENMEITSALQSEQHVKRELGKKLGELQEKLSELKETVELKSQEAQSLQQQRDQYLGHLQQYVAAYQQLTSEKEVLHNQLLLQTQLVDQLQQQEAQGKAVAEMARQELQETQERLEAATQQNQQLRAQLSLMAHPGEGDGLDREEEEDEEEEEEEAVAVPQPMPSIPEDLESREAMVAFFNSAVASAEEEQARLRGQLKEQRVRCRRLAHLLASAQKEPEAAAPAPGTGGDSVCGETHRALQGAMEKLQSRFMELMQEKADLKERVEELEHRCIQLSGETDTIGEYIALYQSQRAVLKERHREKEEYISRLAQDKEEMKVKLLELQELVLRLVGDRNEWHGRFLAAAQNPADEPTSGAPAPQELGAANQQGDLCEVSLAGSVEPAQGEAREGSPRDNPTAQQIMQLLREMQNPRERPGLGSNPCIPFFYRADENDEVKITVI
B2: Zinc finger and SCAN domain-containing protein 9 (Homo sapiens), O15535 (parent)
chain: MNTNSKEVLSLGVQVPEAWEELLTMKVEAKSHLQWQESRLKRSNPLAREIFRRHFRQLCYQETPGPREALTRLQELCYQWLRPHVSTKEQILDLLVLEQFLSILPKELQGWVREHCPESGEEAVILLEDLERELDEPQHEMVAHRHRQEVLCKEMVPLAEQTPLTLQSQPKEPQLTCDSAQKCHSIGETDEVTKTEDRELVLRKDCPKIVEPHGKMFNEQTWEVSQQDPSHGEVGEHKDRIERQWGNLLGEGQHKCDECGKSFTQSSGLIRHQRIHTGERPYECNECGKAFSRSSGLFNHRGIHNIQKRYHCKECGKVFSQSAGLIQHQRIHKGEKPYQCSQCSKSYSRRSFLIEHQRSHTGERPHQCIECGKSFNRHCNLIRHQKIHTVAELV
B3: Probable thioesterase PNKD (Homo sapiens), Q8N490 (parent)
chain: MAAVVAATALKGRGARNARVLRGILAGATANKASHNRTRALQSHSSPEGKEEPEPLSPELEYIPRKRGKNPMKAVGLAWYSLYTRTWLGYLFYRQQLRRARNRYPKGHSKTQPRLFNGVKVLPIPVLSDNYSYLIIDTQAQLAVAVDPSDPRAVQASIEKEGVTLVAILCTHKHWDHSGGNRDLSRRHRDCRVYGSPQDGIPYLTHPLCHQDVVSVGRLQIRALATPGHTQGHLVYLLDGEPYKGPSCLFSGDLLFLSGCGRTFEGNAETMLSSLDTVLGLGDDTLLWPGHEYAEENLGFAGVVEPENLARERKMQWVQRQRLERKGTCPSTLGEERSYNPFLRTHCLALQEALGPGPGPTGDDDYSRAQLLEELRRLKDMHKSK
partner: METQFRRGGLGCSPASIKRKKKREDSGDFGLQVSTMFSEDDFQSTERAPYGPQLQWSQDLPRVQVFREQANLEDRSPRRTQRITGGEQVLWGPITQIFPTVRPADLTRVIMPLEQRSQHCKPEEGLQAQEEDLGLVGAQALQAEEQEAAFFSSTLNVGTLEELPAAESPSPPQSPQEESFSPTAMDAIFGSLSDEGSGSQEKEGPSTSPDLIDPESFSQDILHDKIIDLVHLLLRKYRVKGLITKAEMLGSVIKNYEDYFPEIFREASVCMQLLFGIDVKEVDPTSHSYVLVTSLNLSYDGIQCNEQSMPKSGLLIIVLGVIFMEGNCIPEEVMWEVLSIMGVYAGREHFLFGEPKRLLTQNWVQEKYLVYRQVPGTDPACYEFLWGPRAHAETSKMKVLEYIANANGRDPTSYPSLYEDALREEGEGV
B4: Isoform 1 of EF-hand domain-containing family member C2 (Homo sapiens), Q5JST6-1 (parent)
chain: MALPLLPGNSFNRNVGKEKFHKSQHWGFCNNVMMLVSDEKPGIGGEPLLGQKIKPKCSIYPKGDGSDVPSWVAFDKQVLSFDAYLEEEVLDKSQTNYRIRYYKIYFYPEDDTIQVNEPEVKNSGLLQGTSIRRHRITLPPPDEDQFYTVYHFNVGTEVVFYGRTFKIYDCDAFTRNFLRKIGVKVNPPVQCPEDPYMKIRREVVEHVEPLRPYESLDTLKQFLQYHGKILCFFCLWDDSVSMFGDRRELILHYFLCDDTIEIKELLPHSSGRDALKMFLRRSKLPKNCPPRVYQPGQITDRAVLNSYGDFIKNQADGYLFDRYKLGKVDQEFYKDSDLSLGVTINVWGRKVLLYDCDEFTKSYYKSKYGIENFTSVSCKPPSPPPKIERKFPPYNGFGSEEDSLRNCIDLKPTPHRRNFKKFMEKDSYGSKSNILRFFAKLVTDKCVDLDRMFVISYYLGDDTISVFEPIERNSGIAGGMFLKRSRVKKPGQEVFKSELSEYIKAEELYIGVTVNVNGYLFRLLNADEYTLNYMEQNTDKYPFSNLKLALQKLKQEEGKSRELKQVFKAADSKHTNMVDYNTFRDILMSLTVGNLAEQEFVTIARHYRVPEGTCSDMDFLIALAHEKFKKNMFENFDTFIYSCVYEDREKKNVLPTKDIKRLCKSSRLPLSDDLLESLLSRFEDSEKQIDYKSFFSALNWRKNPVPELQPASYLKERCEDVWLGMPSPIPAKYIDYWTFLKDAFGLEEE

Variants of: B1
Settings: with goga2_human GOLGA2, Q08379

effect of a mutation on the interaction	Variant
with no effect	M1173V

Variants of: B2
Settings: with zn446_human ZNF446, Q9NWS9
zn446_human ZNF446, Q9NWS9, sequence (Q9NWS9 whole entry): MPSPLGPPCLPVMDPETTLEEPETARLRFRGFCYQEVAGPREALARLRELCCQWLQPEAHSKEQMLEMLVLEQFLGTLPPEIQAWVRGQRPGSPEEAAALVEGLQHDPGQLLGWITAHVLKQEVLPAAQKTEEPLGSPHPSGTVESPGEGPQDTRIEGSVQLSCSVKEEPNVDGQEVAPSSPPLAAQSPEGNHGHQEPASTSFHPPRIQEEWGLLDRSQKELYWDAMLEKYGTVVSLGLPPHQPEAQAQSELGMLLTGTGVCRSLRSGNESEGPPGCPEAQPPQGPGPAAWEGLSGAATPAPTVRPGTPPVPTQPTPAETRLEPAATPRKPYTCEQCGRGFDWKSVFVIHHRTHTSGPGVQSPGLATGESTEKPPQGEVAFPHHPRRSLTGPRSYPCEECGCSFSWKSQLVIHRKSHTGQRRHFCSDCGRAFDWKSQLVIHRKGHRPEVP

effect of a mutation on the interaction	Variant
with no effect	Q34R

Variants of: B3
Settings: with magab_human MAGEA11, P43364

effect of a mutation on the interaction	Variant
with no effect	R377Q

Variants of: B4
Settings: with ercc3_human ERCC3, P19447
ercc3_human ERCC3, P19447, sequence (P19447 whole entry): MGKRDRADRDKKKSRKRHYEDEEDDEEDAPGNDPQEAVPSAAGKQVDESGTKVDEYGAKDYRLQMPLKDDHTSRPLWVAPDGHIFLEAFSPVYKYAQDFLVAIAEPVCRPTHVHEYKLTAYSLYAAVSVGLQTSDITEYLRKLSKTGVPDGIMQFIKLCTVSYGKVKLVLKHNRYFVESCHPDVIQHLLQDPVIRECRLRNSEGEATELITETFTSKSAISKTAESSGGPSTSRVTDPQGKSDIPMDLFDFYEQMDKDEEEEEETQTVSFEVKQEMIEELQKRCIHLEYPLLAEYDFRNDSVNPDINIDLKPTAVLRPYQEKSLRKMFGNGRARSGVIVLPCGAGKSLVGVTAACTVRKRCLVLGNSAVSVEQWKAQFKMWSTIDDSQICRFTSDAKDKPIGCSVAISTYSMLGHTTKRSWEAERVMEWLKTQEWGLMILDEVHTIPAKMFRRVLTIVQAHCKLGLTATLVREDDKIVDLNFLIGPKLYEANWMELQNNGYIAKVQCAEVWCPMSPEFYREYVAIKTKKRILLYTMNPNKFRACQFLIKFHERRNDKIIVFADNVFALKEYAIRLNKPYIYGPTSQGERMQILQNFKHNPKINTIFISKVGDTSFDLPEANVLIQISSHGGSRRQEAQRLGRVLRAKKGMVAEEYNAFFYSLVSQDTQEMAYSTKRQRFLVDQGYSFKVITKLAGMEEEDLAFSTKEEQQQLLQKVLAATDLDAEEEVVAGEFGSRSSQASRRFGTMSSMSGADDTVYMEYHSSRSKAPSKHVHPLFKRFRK

effect of a mutation on the interaction	Variant
with no effect	V376I

Variants of: B4
Settings: with ptk6_human PTK6, Q13882

effect of a mutation on the interaction	Variant
with no effect	V376I

Variants of: B4
Settings: with mk09_human MAPK9, P45984

effect of a mutation on the interaction	Variant
with no effect	V376I

Variants of: B4
Settings: with plod3_human PLOD3, O60568
plod3_human PLOD3, O60568, sequence (O60568 whole entry): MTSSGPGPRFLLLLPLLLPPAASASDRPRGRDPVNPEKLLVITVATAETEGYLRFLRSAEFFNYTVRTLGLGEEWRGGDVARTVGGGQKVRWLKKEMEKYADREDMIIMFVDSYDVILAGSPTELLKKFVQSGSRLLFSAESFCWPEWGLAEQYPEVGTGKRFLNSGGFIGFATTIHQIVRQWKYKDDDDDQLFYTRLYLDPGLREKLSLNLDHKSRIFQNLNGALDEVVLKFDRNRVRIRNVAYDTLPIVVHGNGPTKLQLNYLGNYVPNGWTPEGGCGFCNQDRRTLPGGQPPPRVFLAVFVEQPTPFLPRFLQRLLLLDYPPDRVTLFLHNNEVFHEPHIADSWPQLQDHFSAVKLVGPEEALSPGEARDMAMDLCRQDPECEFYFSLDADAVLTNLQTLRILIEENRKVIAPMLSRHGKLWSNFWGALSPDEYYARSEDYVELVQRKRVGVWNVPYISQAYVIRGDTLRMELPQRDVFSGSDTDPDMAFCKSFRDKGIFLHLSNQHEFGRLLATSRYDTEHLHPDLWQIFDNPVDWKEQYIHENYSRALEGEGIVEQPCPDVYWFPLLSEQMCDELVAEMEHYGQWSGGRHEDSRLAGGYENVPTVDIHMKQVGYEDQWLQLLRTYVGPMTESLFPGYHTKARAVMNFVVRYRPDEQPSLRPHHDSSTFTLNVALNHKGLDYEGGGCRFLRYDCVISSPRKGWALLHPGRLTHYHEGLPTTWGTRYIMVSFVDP

effect of a mutation on the interaction	Variant
with no effect	V376I
